T1: Biotin-FcγRIIB (human, UniProt P31994 43-217, limits assumed, biotin-labelled)
T1 construct: Bought, biotin-labelled; used at 1 µg/ml for staining and sorting; also called human FcγRIIB; CD32b
T1 sequence (looked up): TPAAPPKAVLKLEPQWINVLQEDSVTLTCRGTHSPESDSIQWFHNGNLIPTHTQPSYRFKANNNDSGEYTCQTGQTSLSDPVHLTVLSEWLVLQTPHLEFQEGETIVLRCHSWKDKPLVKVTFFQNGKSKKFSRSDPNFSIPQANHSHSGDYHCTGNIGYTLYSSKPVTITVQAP


What follows are binders tested against human OX40 (human) (UniProt P43489) (assay: cell-based or functional assay).
Sequence of human OX40 (human) (P43489 29-277): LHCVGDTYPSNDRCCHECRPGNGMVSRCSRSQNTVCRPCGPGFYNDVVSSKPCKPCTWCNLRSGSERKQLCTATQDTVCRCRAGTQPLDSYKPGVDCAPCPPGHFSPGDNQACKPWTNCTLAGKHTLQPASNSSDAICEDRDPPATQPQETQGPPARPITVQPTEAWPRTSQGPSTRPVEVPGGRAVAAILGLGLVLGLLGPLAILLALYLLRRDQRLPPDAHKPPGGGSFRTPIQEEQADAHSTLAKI

Average increased factor of the activity over wild-type IgG2 of two experiments	Average relative activity of two experiments	Experiment 2 CFSE fluorescence intensity, 0.1 µg/ml	Experiment 2 CFSE fluorescence intensity, 1 µg/ml	Experiment 2 average relative activity	Experiment 2 relative activity, 0.1 µg/ml	Experiment 2 relative activity, 1 µg/ml	Experiment 1 CFSE fluorescence intensity, 0.01 µg/ml	Experiment 1 CFSE fluorescence intensity, 0.1 µg/ml	Experiment 1 CFSE fluorescence intensity, 1 µg/ml	Binder
9.9	0.43	2290	1790	0.43	0.3	0.56				anti-human OX40 antibody, human IgG2 Fc mutant Mut_22 (V266L/S267M/H268E/P271Q) (antibody, name in EU numbering) heavy: QVQLQESGPGLVKPSGTLSLTCAVSGGSISSSIWWSWVRQPPGKGLEWIGEIHHSGNTNCNPSLKSRVTISIDKSKNQFSLKLTSVTAADTAVYYCARAGTGTTLDYWGQGTLVTVSSASTKGPSVFPLAPCSRSTSESTAALGCLVKDYFPEPVTVSWNSGALTSGVHTFPAVLQSSGLYSLSSVVTVPSSNFGTQTYTCNVDHKPSNTKVDKTVERKCCVECPPCPAPPVAGPSVFLFPPKPKDTLMISRTPEVTCVVVDLMEEDQEVQFNWYVDGVEVHNAKTKPREEQFNSTFRVVSVLTVVHQDWLNGKEYKCKVSNKGLPAPIEKTISKTKGQPREPQVYTLPPSREEMTKNQVSLTCLVKGFYPSDIAVEWESNGQPENNYKTTPPMLDSDGSFFLYSKLTVDKSRWQQGNVFSCSVMHEALHNHYTQKSLSLSPGK light: EIVLTQSPGTLSLSPGERATLSCRASQSVSGDYLAWYQQKLGQAPRLLIYGASIRATGIPDRFSGSGSGTDFTLTISKLEPEDFAVYYCQQYGSSPLTFGGGTKVEIKRTVAAPSVFIFPPSDEQLKSGTASVVCLLNNFYPREAKVQWKVDNALQSGNSQESVTEQDSKDSTYSLSSTLTLSKADYEKHKVYACEVTHQGLSSPVTKSFNRGEC
10.5	0.46	2090	1670	0.52	0.41	0.63	880	735	824	anti-human OX40 antibody, human IgG2 Fc mutant Mut_19 (V266L/S267E/H268S/E269V/P271C) (antibody, name in EU numbering) heavy: QVQLQESGPGLVKPSGTLSLTCAVSGGSISSSIWWSWVRQPPGKGLEWIGEIHHSGNTNCNPSLKSRVTISIDKSKNQFSLKLTSVTAADTAVYYCARAGTGTTLDYWGQGTLVTVSSASTKGPSVFPLAPCSRSTSESTAALGCLVKDYFPEPVTVSWNSGALTSGVHTFPAVLQSSGLYSLSSVVTVPSSNFGTQTYTCNVDHKPSNTKVDKTVERKCCVECPPCPAPPVAGPSVFLFPPKPKDTLMISRTPEVTCVVVDLESVDCEVQFNWYVDGVEVHNAKTKPREEQFNSTFRVVSVLTVVHQDWLNGKEYKCKVSNKGLPAPIEKTISKTKGQPREPQVYTLPPSREEMTKNQVSLTCLVKGFYPSDIAVEWESNGQPENNYKTTPPMLDSDGSFFLYSKLTVDKSRWQQGNVFSCSVMHEALHNHYTQKSLSLSPGK light: EIVLTQSPGTLSLSPGERATLSCRASQSVSGDYLAWYQQKLGQAPRLLIYGASIRATGIPDRFSGSGSGTDFTLTISKLEPEDFAVYYCQQYGSSPLTFGGGTKVEIKRTVAAPSVFIFPPSDEQLKSGTASVVCLLNNFYPREAKVQWKVDNALQSGNSQESVTEQDSKDSTYSLSSTLTLSKADYEKHKVYACEVTHQGLSSPVTKSFNRGEC

Same assay, conditions: not given

Experiment 1 average relative activity	Experiment 1 relative activity, 0.01 µg/ml	Experiment 1 relative activity, 0.1 µg/ml	Experiment 1 relative activity, 1 µg/ml	Binder
0.42	0.3	0.56	0.4	anti-human OX40 antibody, human IgG2 Fc mutant Mut_19 (V266L/S267E/H268S/E269V/P271C) (antibody, name in EU numbering) heavy: QVQLQESGPGLVKPSGTLSLTCAVSGGSISSSIWWSWVRQPPGKGLEWIGEIHHSGNTNCNPSLKSRVTISIDKSKNQFSLKLTSVTAADTAVYYCARAGTGTTLDYWGQGTLVTVSSASTKGPSVFPLAPCSRSTSESTAALGCLVKDYFPEPVTVSWNSGALTSGVHTFPAVLQSSGLYSLSSVVTVPSSNFGTQTYTCNVDHKPSNTKVDKTVERKCCVECPPCPAPPVAGPSVFLFPPKPKDTLMISRTPEVTCVVVDLESVDCEVQFNWYVDGVEVHNAKTKPREEQFNSTFRVVSVLTVVHQDWLNGKEYKCKVSNKGLPAPIEKTISKTKGQPREPQVYTLPPSREEMTKNQVSLTCLVKGFYPSDIAVEWESNGQPENNYKTTPPMLDSDGSFFLYSKLTVDKSRWQQGNVFSCSVMHEALHNHYTQKSLSLSPGK light: EIVLTQSPGTLSLSPGERATLSCRASQSVSGDYLAWYQQKLGQAPRLLIYGASIRATGIPDRFSGSGSGTDFTLTISKLEPEDFAVYYCQQYGSSPLTFGGGTKVEIKRTVAAPSVFIFPPSDEQLKSGTASVVCLLNNFYPREAKVQWKVDNALQSGNSQESVTEQDSKDSTYSLSSTLTLSKADYEKHKVYACEVTHQGLSSPVTKSFNRGEC

The binders below were run against T1, Biotin-FcγRIIB (assay: FACS sorting of displayed Fc library on biotin-FcγRIIB, NGS).

Increased factor b Site 2 (point mutation/wild-type)	Increased factor b Site 1 (point mutation/wild-type)	Binder
2.3		human IgG2 anti-mouse CD40 surface displayed antibody, Fc mutant S298N (antibody, name in EU numbering, as m1; positions are Eu numbers; copies: 2 + 2) light chain (with the P2A rest): DTVLTQSPALAVSPGERVTISCRASDSVSTLMHWYQQKPGQQPKLLIYLASHLESGVPARFSGSGSGTDFTLTIDPVEADDTATYYCQQSWNDPWTFGGGTKLELKRTVAAPSVFIFPPSDEQLKSGTASVVCLLNNFYPREAKVQWKVDNALQSGNSQESVTEQDSKDSTYSLSSTLTLSKADYEKHKVYACEVTHQGLSSPVTKSFNRGECGSGATNFSLLKQAGDVEENPG heavy chain: EVQLVESDGGLVQPGRSLKLPCAASGFTFSDYYMAWVRQAPTKGLEWVASISYDGSSTYYRDSVKGRFTISRDNAKSTLYLQMDSLRSEDTATYYCGRHSSYFDYWGQGVMVTVSSASTKGPSVFPLAPCSRSTSESTAALGCLVKDYFPEPVTVSWNSGALTSGVHTFPAVLQSSGLYSLSSVVTVPSSNFGTQTYTCNVDHKPSNTKVDKTVERKCCVECPPCPAPPVAGPSVFLFPPKPKDTLMISRTPEVTCVVVDVSHEDPEVQFNWYVDGVEVHNAKTKPREEQFNNTFRVVSVLTVVHQDWLNGKEYKCKVSNKGLPAPIEKTISKTKGQPREPQVYTLPPSREEMTKNQVSLTCLVKGFYPSDIAVEWESNGQPENNYKTTPPMLDSDGSFFLYSKLTVDKSRWQQGNVFSCSVMHEALHNHYTQKSLSLSPGKLEPPPSTVSNMATVAVLVVLGAAIVTGAVVAFVMKMRRRNTGGKGGDYALAPGSQTSDLSLPDCKVMVHDPHSLA
	3.1	human IgG2 anti-mouse CD40 surface displayed antibody, Fc mutant V266A (antibody, name in EU numbering, as m1; positions are Eu numbers; copies: 2 + 2) light chain (with the P2A rest): DTVLTQSPALAVSPGERVTISCRASDSVSTLMHWYQQKPGQQPKLLIYLASHLESGVPARFSGSGSGTDFTLTIDPVEADDTATYYCQQSWNDPWTFGGGTKLELKRTVAAPSVFIFPPSDEQLKSGTASVVCLLNNFYPREAKVQWKVDNALQSGNSQESVTEQDSKDSTYSLSSTLTLSKADYEKHKVYACEVTHQGLSSPVTKSFNRGECGSGATNFSLLKQAGDVEENPG heavy chain: EVQLVESDGGLVQPGRSLKLPCAASGFTFSDYYMAWVRQAPTKGLEWVASISYDGSSTYYRDSVKGRFTISRDNAKSTLYLQMDSLRSEDTATYYCGRHSSYFDYWGQGVMVTVSSASTKGPSVFPLAPCSRSTSESTAALGCLVKDYFPEPVTVSWNSGALTSGVHTFPAVLQSSGLYSLSSVVTVPSSNFGTQTYTCNVDHKPSNTKVDKTVERKCCVECPPCPAPPVAGPSVFLFPPKPKDTLMISRTPEVTCVVVDASHEDPEVQFNWYVDGVEVHNAKTKPREEQFNSTFRVVSVLTVVHQDWLNGKEYKCKVSNKGLPAPIEKTISKTKGQPREPQVYTLPPSREEMTKNQVSLTCLVKGFYPSDIAVEWESNGQPENNYKTTPPMLDSDGSFFLYSKLTVDKSRWQQGNVFSCSVMHEALHNHYTQKSLSLSPGKLEPPPSTVSNMATVAVLVVLGAAIVTGAVVAFVMKMRRRNTGGKGGDYALAPGSQTSDLSLPDCKVMVHDPHSLA

Reference: patent US20230220042A1 (SHANGHAI JIAO TONG UNIVERSITY SCHOOL OF MEDICINE, published 2023)
